# Measured values taken from patent US20120141476A1 (MacroGenics, published 2012).
# Positions count from the first letter of the chain named. Names and notes keep the numbering of the source.
# B1: ch2B6HC/ch2B6LC mAb (chimeric 2B6) (antibody, V domains shown)
# VH: QVQLQQPVTELVRPGASVMLSCKASDYPFTNYWIHWVKQRPGQGLEWIGVIDPSDTYPNYNKKFKGKATLTVVVSSSTAYMQLSSLTSDDSAVYYCARNGDSDYYSGMDYWGQGTSVTVSS
# VL: DILLTQSPAILSVSPGERVSFSCRTSQSIGTNIHWYQQRTNGFPRLLIKNVSESISGIPSRFSGSGSGTDFILSINSVESEDIADYYCQQSNTWPFTFGGGTKLEIK
# notes: Tested as conditioned medium of transfected HEK-293 cells; also called ch2B6 mAb; chimeric mAb
# B2: hu2B6HC/hu2B6LC(N50Y) (antibody, V domains shown)
# VH: QVQLVQSGAEVKKPGASVKVSCKASGYTFTNYWIHWVRQAPGQGLEWMGVIDPSDTYPNYNKKFKGRVTMTTDTSTSTAYMELRSLRSDDTAVYYCARNGDSDYYSGMDYWGQGTTVTVSS
# VL: EIVLTQSPDFQSVTPKEKVTITCRTSQSIGTNIHWYQQKPDQSPKLLIKYVSESISGVPSRFSGSGSGTDFTLTINSLEAEDAATYYCQQSNTWPFTFGGGTKVEIK
# notes: Human C-Gamma1 and C-kappa constant regions; also called Hu2B6N50Y; Hu2B6 N50Y
# B3: hu2B6HC/hu2B6LC mAb (humanized 2B6) (antibody, V domains shown)
# VH: B2 VH
# VL: B2 VL with Y50N
# notes: Human C-Gamma1 and C-kappa constant regions
# B4: hu2B6HC/hu2B6LC(N50Y,V51A) (antibody, V domains shown)
# VH: B2 VH
# VL: B2 VL with V51A
# notes: Human C-Gamma1 and C-kappa constant regions; also called Hu2B6N50Y,V51A; Hu2B6N50Y, V51A
# Columns and labels:
# [1] = biological target: T1, FcγRIIB (CD32B) on Daudi cells (human, UniProt P31994 43-310); assay: FACS on Daudi cells, antibody at 0.5 µg/ml
# T1 construct: whole, on cells; also called this human B cell tumor line
# T1 sequence (looked up): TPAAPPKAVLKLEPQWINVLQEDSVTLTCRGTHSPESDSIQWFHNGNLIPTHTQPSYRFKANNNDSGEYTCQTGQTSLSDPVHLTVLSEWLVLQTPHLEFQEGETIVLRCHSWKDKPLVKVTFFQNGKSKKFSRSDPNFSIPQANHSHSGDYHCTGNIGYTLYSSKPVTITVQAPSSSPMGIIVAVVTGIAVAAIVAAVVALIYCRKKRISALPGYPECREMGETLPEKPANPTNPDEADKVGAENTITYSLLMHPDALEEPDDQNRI
# Description: (§1) Protocol for FACS analysis. Approximately 10⁶ Daudi cells were used for each antibody staining Cells were washed once with PBS. Primary antibodies (Ch2B6, Hu2B6Hc/ch2B6Lc, human IgG1 ) were diluted into 0.5, 0.1, 0.02 μg/mL in PBS/1% BSA and 100 μL of diluted antibodies was transferred to the cells. After 30 mins incubation at 4° C., cells were washed once with 1 mL PBS/1% BSA. PE conjugated F(ab′)₂ fragment of goat anti human IgG Fc specific (Jackson ImmunoReseach, Inc.) was used as secondary antibody at 1:1000 dilution. After 30 mins incubation at 4° C., cells were washed once with 1 mL PBS/1% BSA. The cells were then resuspended in 500 μL of PBS/1% BSA and subjected to be FACS analysis.
# (§2) Transfections of HEK-293 cells were performed using the following combinations: hu2B6HC/hu2B6LC; hu2B6HC/hu2B6LC(N50Y); hu2B6HC/hu2B6LC(N50Y,V51A); ch2B6HC/ch2B6LC. After three days in culture the amount of human IgG expressed was quantitated by an ELISA assay, using the method described above. Binding to dimeric soluble FcγRIIb-Fc was determined by ELISA assay. […] FACS analysis was then performed to measure the binding of the mAbs to Daudi cells (Table 8).
# [2] = biological target: T1, FcγRIIB (CD32B) on Daudi cells; assay: FACS on Daudi cells, antibody at 0.02 µg/ml
# Description: as §1, §2
# [3] = biological target: T1, FcγRIIB (CD32B) on Daudi cells; assay: FACS on Daudi cells, antibody at 0.1 µg/ml
# Description: as §1, §2
# [4] = biological target: T2, dimeric soluble FcγRIIa-Fc (UniProt P12318 34-217); assay: ELISA, 100 ng/well soluble FcγIIA coated
# T2 construct: also called soluble FcγIIA; FcγIIA
# T2 sequence (looked up): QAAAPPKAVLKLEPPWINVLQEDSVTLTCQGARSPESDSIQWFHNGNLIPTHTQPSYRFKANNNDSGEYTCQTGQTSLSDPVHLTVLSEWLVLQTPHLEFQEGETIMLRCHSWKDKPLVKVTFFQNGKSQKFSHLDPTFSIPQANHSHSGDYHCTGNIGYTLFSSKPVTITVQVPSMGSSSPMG
# Description: Protocal for ELISA assay: 100 ng/well of soluble FcγIIA in carbonate buffer was coated on 96-well Maxisorp plates at 4° C. overnight. A serial of two-fold dilution of conditioned medium of Ch2B6; hu2B6HC/hu2B6LC; hu2B6HC/hu2B6LC(N50Y); hu2B6HC/hu2B6LC(N50Y,V51A); and purified IV.3 starting from 25 ng/well was added to the each well. The plate was incubated at room temperature for 1 hour. The binding was detected by HRP conjugated F(ab′)2 goat anti human IgG F(ab′)2 specific secondary antibody for Ch2B6 and all hu2B6 samples and HRP conjugated F(ab′)2 goat anti mouse IgG (H+L) secondary antibody for IV.3. After incubation with the secondary antibody for approximately 45 minutes, the plate was developed using a TMB substrate. After 5 mins incubation, the reaction was stopped by 1% H₂SO₄. The OD₄₅₀ nm was ready by SOFTmax program. Between each step, the plates were washed 3 times with PBS/0.1% Tween 20. The plates were blocked by 0.5% BSA in PBS/0.1% Tween 20 for 30 mins at room temperature before adding the serial diluted antibodies.
binder,measurement,setting,value
B1,Mean Fluorescence,[1],193
same,Mean Fluorescence,[2],45.6
same,Mean Fluorescence,[3],141
B2,binding result,[4],no binding
B3,binding result,[4],no binding
B4,binding result,[4],no binding
